Target: hfr1_arath HFR1 (UniProt Q9FE22)
Sequence (Q9FE22 whole entry): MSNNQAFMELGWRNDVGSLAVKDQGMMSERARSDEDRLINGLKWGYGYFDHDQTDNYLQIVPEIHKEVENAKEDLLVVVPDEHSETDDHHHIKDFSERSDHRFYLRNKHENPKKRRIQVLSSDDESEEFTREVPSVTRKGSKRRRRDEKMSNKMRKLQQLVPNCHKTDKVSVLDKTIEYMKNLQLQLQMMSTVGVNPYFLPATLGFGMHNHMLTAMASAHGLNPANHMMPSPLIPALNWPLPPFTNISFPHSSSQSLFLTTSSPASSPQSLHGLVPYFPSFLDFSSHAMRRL

Chain of Transcription factor LAF1 (Arabidopsis thaliana (Mouse-ear cress)), Q9M0K4 R97A (Q9M0K4 whole entry R97A): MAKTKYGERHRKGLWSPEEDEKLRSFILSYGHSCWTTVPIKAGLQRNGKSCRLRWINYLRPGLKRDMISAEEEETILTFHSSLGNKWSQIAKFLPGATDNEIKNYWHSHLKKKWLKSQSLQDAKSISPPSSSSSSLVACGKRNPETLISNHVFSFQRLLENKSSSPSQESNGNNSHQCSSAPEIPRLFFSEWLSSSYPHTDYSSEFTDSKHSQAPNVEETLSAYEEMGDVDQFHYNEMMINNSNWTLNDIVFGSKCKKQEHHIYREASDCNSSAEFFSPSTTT

Substance	effect of a mutation on the interaction
Transcription factor LAF1 (Arabidopsis thaliana (Mouse-ear cress)), Q9M0K4 W87A	decreasing interaction
Transcription factor LAF1 (Arabidopsis thaliana (Mouse-ear cress)), Q9M0K4 R97A	disrupting interaction
